According to article PMC4041461, “Identification and characterization of RNA guanine-quadruplex binding proteins”:

Tests used:
Δnucleolin = Δnucleolin (Homo sapiens, UniProt P19338 284-710, del1-283); experiment: SPR; SPR: 25 °C, 1:10 mixture of binding buffer (10 mM Tris-HCl pH 7.5, 150 mM KCl) and HBS-EP (10 mM HEPES pH 7.4, 150 mM NaCl, 3 mM EDTA, 0.005% P20), protein immobilized; pull-down: RNA on streptavidin beads blocked in 10 mM Tris-HCl pH 7.5, 100 mM KCl, 0.1 mM EDTA, 1 mM DTT, 0.01% Triton X-100, BSA, tRNA; extract 1 h at 30 °C, elution 400-2600 mM KCl; details: protein: recombinant, tags: N-terminal His-tag (pET28a), label: biotin
U2AF65 = U2AF65 (Homo sapiens, UniProt P26368 1-475); experiment: as above; details: protein: recombinant, tags: N-terminal His-tag (pET28a), label: biotin
EFHD2 = target: T1, EFHD2 (Homo sapiens, UniProt Q96C19 1-240); experiment: SPR; 100 nM RNA; SPR: 25 °C, 1:10 mixture of binding buffer (10 mM Tris-HCl pH 7.5, 150 mM KCl) and HBS-EP (10 mM HEPES pH 7.4, 150 mM NaCl, 3 mM EDTA, 0.005% P20), protein immobilized; pull-down: RNA on streptavidin beads blocked in 10 mM Tris-HCl pH 7.5, 100 mM KCl, 0.1 mM EDTA, 1 mM DTT, 0.01% Triton X-100, BSA, tRNA; extract 1 h at 30 °C, elution 400-2600 mM KCl; details: protein: recombinant; tags: N-terminal His-tag (pET28a); label: biotin; parallel G4, several variants possible
T1 sequence: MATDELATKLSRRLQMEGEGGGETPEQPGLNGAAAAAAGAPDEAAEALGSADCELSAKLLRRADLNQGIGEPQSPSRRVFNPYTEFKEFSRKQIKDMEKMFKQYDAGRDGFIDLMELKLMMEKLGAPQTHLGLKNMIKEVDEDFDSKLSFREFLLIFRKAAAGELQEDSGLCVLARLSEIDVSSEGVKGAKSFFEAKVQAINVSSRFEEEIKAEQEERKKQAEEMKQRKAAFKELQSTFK

SRSF1 = SRSF1 (Homo sapiens, UniProt Q07955 1-248); experiment: as above; details: protein: recombinant; tags: N-terminal His-tag (pET28a); label: biotin; parallel G4, several variants possible
[1] = parallel G4, several variants possible

Chain of Δnucleolin (P19338 284-710, stated change not applied): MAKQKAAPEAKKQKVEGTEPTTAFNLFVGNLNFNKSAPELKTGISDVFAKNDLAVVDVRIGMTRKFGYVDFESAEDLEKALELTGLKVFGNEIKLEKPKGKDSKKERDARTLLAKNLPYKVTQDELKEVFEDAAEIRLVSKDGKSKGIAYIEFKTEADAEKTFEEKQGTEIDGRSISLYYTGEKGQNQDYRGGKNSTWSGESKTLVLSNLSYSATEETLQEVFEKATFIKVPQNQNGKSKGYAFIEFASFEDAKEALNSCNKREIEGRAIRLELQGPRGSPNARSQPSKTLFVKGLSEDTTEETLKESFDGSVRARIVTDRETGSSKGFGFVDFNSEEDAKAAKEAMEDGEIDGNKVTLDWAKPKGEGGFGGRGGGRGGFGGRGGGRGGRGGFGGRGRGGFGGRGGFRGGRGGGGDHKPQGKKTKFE
Chain of U2AF65 (P26368 whole entry, one chain of several): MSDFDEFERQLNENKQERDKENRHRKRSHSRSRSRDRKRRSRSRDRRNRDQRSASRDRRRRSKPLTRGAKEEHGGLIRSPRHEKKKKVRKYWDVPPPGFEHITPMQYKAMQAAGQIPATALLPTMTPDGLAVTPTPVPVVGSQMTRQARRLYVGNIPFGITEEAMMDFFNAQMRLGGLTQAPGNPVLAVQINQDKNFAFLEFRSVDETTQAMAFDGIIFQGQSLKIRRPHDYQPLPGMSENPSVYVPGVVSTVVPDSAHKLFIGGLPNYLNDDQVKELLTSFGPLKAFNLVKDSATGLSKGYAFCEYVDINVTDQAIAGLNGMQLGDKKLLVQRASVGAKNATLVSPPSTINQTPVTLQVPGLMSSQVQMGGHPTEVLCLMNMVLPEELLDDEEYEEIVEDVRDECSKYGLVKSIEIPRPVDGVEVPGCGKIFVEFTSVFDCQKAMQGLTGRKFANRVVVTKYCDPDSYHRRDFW
Chain of SRSF1 (Q07955 whole entry): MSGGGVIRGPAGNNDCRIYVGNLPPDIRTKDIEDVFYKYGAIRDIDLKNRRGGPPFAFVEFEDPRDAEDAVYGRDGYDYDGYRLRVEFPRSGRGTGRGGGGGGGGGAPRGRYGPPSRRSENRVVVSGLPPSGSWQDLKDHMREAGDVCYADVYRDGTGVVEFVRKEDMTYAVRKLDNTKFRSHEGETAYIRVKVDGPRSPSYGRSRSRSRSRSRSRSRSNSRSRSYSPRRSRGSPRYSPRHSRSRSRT

Question: Which Kd (Δnucleolin; no G4) does the source give for AACGAGAGAGAGAGAGAGAGAGAGAGA (ssRNA, 3' biotin) [MMP16 mut] here?
Answer: 0.6 nM

Question: AACGAGGGAGGGAGGGAGAGGGAGAGA (structured_RNA, 3' biotin) [MMP16 GQ] was tested. Which Kd (Δnucleolin; parallel G4 (CD, UV melting)) did it give?
Answer: 2 nM

Question: And the Kd (U2AF65; parallel G4 (CD, UV melting))?
Answer: 5 nM

Question: With AGCCGUAGACUGAGCGAAGACCGAGCUUGU (ssRNA, 3' biotin) [ARPC2 mut] as the binder, how does the Kd (Δnucleolin; no G4) read?
Answer: 83 nM

Question: Does AGCCGGGGGCUGGGCGGGGACCGGGCUUGU (structured_RNA, 3' biotin) [ARPC2 GQ] bind (EFHD2)?
Answer: binds

Question: Does AGCCGGGGGCUGGGCGGGGACCGGGCUUGU (structured_RNA, 3' biotin) [ARPC2 GQ] bind (SRSF1)?
Answer: binds

Question: And the Kd (Δnucleolin; [1])?
Answer: 0.6 nM

Question: What about the Kd (U2AF65; [1]) of the same binder?
Answer: 1 nM
